For data set [1], the system named is NCI-H446 human cancer cell line. The data set is described as follows: Cytotoxic activity (cell proliferation inhibition rate, xCELLigence) with human PBMCs. The format is cell-based. The conditions noted are these: human PBMCs as effector cells; NCI-H446 target cells; 72 hours. How it is done: Using a syringe preloaded with 100 μL of 1,000 units/mL heparin solution (Novo Heparin for injection, 5000 units, Novo Nordisk), 50 mL of peripheral blood was collected from each healthy volunteer (adult individual). This peripheral blood was diluted two-fold in PBS(−), divided into four aliquots, and added into a Leucosep tube for lymphocyte separation (Cat. No. 227290, Greiner Bio-One) that had been loaded with 15 mL of Ficoll-Paque PLUS and subjected to centrifugation in advance. This separation tube was centrifuged (at 2150 rpm for ten minutes at room temperature), and then the mononuclear cell fraction was collected. The cells in the mononuclear cell fraction were washed once with the Dulbecco's Modified Eagle's Medium containing 10% FBS (manufactured by SIGMA, hereinafter referred to as 10% FBS/D-MEM), and then prepared to have a cell density of 4×10^6 cells/mL using 10% FBS/D-MEM. The cell suspension prepared this way was used as the human PBMC solution in the experiment below.
Cytotoxic activity was assessed by the rate of cell proliferation inhibition using the xCELLigence Real-Time Cell Analyzer (Roche Diagnostics). […]
Cytotoxic activity was measured by the method described in Reference Example 1-3-2.
CDR and FR were determined according to the Kabat definition (Kabat numbering). […]

The target in data set [2] is human GPC3 (Homo sapiens, UniProt P51654). In words: Affinity for human GPC3 by surface plasmon resonance (Biacore T200). The format is binding. The following applies: soluble human GPC3; Table 13. How it is done: The activity to bind human GPC3 when using GL4 (SEQ ID NO: 41) and L0000 (SEQ ID NO: 53) as the L-chain variable regions was evaluated. This was performed using the molecular form of a single-arm antibody having a single Fab at the Fc region of a human IgG1 heterodimerized by the knobs-into-hole technique. H0000 (SEQ ID NO: 40) was used for the anti-GPC3 antibody H-chain variable region.
The affinity and binding rate constants of an anti-GPC3 antibody for an antigen were measured by the multi-cycle kinetics method of a surface plasmon resonance assay using Biacore™-T200 (GE Healthcare Japan). HBS-EP+(GE Healthcare Japan) was used for the running buffer, and an amine coupling kit (GE Healthcare Japan) was used to covalently bind Protein A/G to the CM5 chip (carboxymethyl dextran-coated chip). Each anti-GPC3 antibody was prepared so that approximately 100 RU will be captured by Protein A/G. Human GPC3 used as the analyte was prepared at 8, 16, 32, 64, and 128 nM using HBS-EP+. Measurements were carried out by first allowing Protein A/G to capture the antibody solution, and then injecting the human GPC3 solution at a flow rate of […] for three minutes to allow reaction to take place. Then, the solution was switched to HBS-EP+ and the dissociation phase was measured for 15 minutes. After completion of the dissociation phase measurement, the sensor chip was regenerated by washing with 10 mM Gly-HCl at pH 1.5. Measurement at the concentration of 0 was similarly carried out by allowing Protein A/G to capture the antibody solution, performing a three-minute HBS-EP+ injection to allow reaction to take place, and then switching to HBS-EP+ to measure the dissociation phase for 15 minutes. […]
CDR and FR were determined according to the Kabat definition (Kabat numbering).
First, point mutations were introduced into CDR1, CDR2, and CDR3 of the anti-human GPC3 bispecific antibody sequence produced in Reference Example 2, H0000-ERY27_HK (SEQ ID NO: 54), to prepare modified antibodies. Next, the affinity of these modified antibodies for soluble human GPC3 was determined.

Sequence of human GPC3 (P51654 25-563 limits assumed): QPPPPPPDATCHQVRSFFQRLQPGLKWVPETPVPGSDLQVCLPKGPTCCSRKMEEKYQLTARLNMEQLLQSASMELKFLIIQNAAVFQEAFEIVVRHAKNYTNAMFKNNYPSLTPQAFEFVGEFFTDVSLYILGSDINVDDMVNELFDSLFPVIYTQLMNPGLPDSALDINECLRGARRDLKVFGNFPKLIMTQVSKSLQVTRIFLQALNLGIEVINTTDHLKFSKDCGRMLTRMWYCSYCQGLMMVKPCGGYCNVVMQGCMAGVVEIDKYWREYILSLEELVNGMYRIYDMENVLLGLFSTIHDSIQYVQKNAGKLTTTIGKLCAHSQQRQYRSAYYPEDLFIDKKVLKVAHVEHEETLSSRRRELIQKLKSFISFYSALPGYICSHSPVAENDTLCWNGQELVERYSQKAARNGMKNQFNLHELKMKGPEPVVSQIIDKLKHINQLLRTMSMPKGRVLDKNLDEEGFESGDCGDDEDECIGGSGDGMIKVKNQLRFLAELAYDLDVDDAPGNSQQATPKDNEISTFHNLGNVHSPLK

B1: GPC3_ERY22_rCE115: heterodimeric bispecific antibody of GL4-ERY22_Hk, H0000-ERY22_L, rCE115H-ERY22_Hh, rCE115L-k0 (SEQ ID NOs: 47-50) (antibody)
heavy 1: DIVMTQSPLSLPVTPGEPASISCRSSQSLVHSNRNTYLHWYQQKPGQAPRLLIYKVSNRFSGVPDRFSGSGSGTDFTLKISRVEAEDVGVYYCSQNTHVPPTFGQGTKLEIKSSASTKGPSVFPLAPSSKSTSGGTAALGCLVKDYFPEPVTVSWNSGALTSGVHTFPAVLQSSGLYSLSSVVTVPSSSLGTQTYICNVNHKPSNTKVDKKVEPKSCDKTHTCPPCPAPEAAGGPSVFLFPPKPKDTLMISRTPEVTCVVVDVSHEDPEVKFNWYVDGVEVHNAKTKPREEQYASTYRVVSVLTVLHQDWLNGKEYKCKVSNKALPAPIEKTISKAKGQPREPQVCTLPPSRDELTKNQVSLWCLVKGFYPSDIAVEWESNGQPENNYKTTPPVLDSDGSFFLYSKLTVDKSRWQQGNVFSCSVMHEALHNHYTQKSLSLSPHHHHHHHH
light 1: QVQLVQSGAEVKKPGASVKVSCKASGYTFTDYEMHWIRQPPGQGLEWIGAIDPKTGDTAYSQKFKGRVTLTADKSTSTAYMELSSLTSEDTAVYYCTRFYSYTYWGQGTLVTVSSASVAAPSVFIFPPSDEQLKSGTASVVCLLNNFYPREAKVQWKVDNALQSGNSQESVTEQDSKDSTYSLSSTLTLSKADYEKHKVYACEVTHQGLSSPVTKSFNRGEC
heavy 2: EVQLVETGGSLVQPGKSLKLTCATSGFTFSNAWMHWVRQSPEKQLEWVAQIKAKSNNYATYYAESVKGRFTISRDDSKSNIYLQMNSLKEEDTAVYYCRYVHYGAYYGVDAWGQGTSVTVSSASTKGPSVFPLAPSSKSTSGGTAALGCLVKDYFPEPVTVSWNSGALTSGVHTFPAVLQSSGLYSLSSVVTVPSSSLGTQTYICNVNHKPSNTKVDKKVEPKSCDKTHTCPPCPAPEAAGGPSVFLFPPKPKDTLMISRTPEVTCVVVDVSHEDPEVKFNWYVDGVEVHNAKTKPREEQYASTYRVVSVLTVLHQDWLNGKEYKCKVSNKALPAPIEKTISKAKGQPREPQVYTLPPSRCELTKNQVSLSCAVKGFYPSDIAVEWESNGQPENNYKTTPPVLDSDGSFFLVSKLTVDKSRWQQGNVFSCSVMHEALHNHYTQKSLSLSPDYKDDDDK
light 2: DVVMTQTPVSMSVSLGGQVSISCRSSQSLVHNNGNTYVSWYIQKPSQSPQLLIYKVSNRFSGISDRFSGSGSGTDFTLKISRVEPDDLGVYYCGQGTQDPYTFGAGTKLELKRTVAAPSVFIFPPSDEQLKSGTASVVCLLNNFYPREAKVQWKVDNALQSGNSQESVTEQDSKDSTYSLSSTLTLSKADYEKHKVYACEVTHQGLSSPVTKSFNRGEC
modifications: An artificially generated sequence
In the case of B1, the “cytotoxic activity (T-cell-dependent cellular cytotoxicity)” value in data set [1] was “very strong activity”.

B2: antibody-1: anti-human CD3ε chain and anti-human GPC3 bispecific antibody (antibody)
heavy: EVQLVETGGSLVQPGKSLKLTCATSGFTFSNAWMHWVRQSPEKQLEWVAQIKAKSNNYATYYAESVKGRFTISRDDSKSNIYLQMNSLKEEDTAVYYCRYVHYGAYYGVDAWGQGTSVTVSSASTKGPSVFPLAPSSKSTSGGTAALGCLVKDYFPEPVTVSWNSGALTSGVHTFPAVLQSSGLYSLSSVVTVPSSSLGTQTYICNVNHKPSNTKVDKKVEPKSCDKTHTCPPCPAPEAAGGPSVFLFPPKPKDTLMISRTPEVTCVVVDVSHEDPEVKFNWYVDGVEVHNAKTKPREEQYASTYRVVSVLTVLHQDWLNGKEYKCKVSNKALPAPIEKTISKAKGQPREPQVYTLPPSRCELTKNQVSLSCAVKGFYPSDIAVEWESNGQPENNYKTTPPVLDSDGSFFLVSKLTVDKSRWQQGNVFSCSVMHEALHNHYTQKSLSLSPDYKDDDDK
light: DVVMTQTPVSMSVSLGGQVSISCRSSQSLVHNNGNTYVSWYIQKPSQSPQLLIYKVSNRFSGISDRFSGSGSGTDFTLKISRVEPDDLGVYYCGQGTQDPYTFGAGTKLELKRTVAAPSVFIFPPSDEQLKSGTASVVCLLNNFYPREAKVQWKVDNALQSGNSQESVTEQDSKDSTYSLSSTLTLSKADYEKHKVYACEVTHQGLSSPVTKSFNRGEC
chain 1: DIVMTQSPLSLPVTPGEPASISCRSSQSLVHSNRNTYLHWYQQKPGQAPRLLIYKVSNRFSGVPDRFSGSGSGTDFTLKISRVEAEDVGVYYCSQNTHVPPTFGQGTKLEIKSSASTKGPSVFPLAPSSKSTSGGTAALGCLVKDYFPEPVTVSWNSGALTSGVHTFPAVLQSSGLYSLSSVVTVPSSSLGTQTYICNVNHKPSNTKVDKKVEPKSCDKTHTCPPCPAPEAAGGPSVFLFPPKPKDTLMISRTPEVTCVVVDVSHEDPEVKFNWYVDGVEVHNAKTKPREEQYASTYRVVSVLTVLHQDWLNGKEYKCKVSNKALPAPIEKTISKAKGQPREPQVCTLPPSRDELTKNQVSLWCLVKGFYPSDIAVEWESNGQPENNYKTTPPVLDSDGSFFLYSKLTVDKSRWQQGNVFSCSVMHEALHNHYTQKSLSLSPHHHHHHHH
chain 2: QVQLVQSGAEVKKPGASVKVSCKASGYTFTDYEMHWIRQPPGQGLEWIGAIDPKTGDTAYSQKFKGRVTLTADKSTSTAYMELSSLTSEDTAVYYCTRFYSYTYWGQGTLVTVSSASVAAPSVFIFPPSDEQLKSGTASVVCLLNNFYPREAKVQWKVDNALQSGNSQESVTEQDSKDSTYSLSSTLTLSKADYEKHKVYACEVTHQGLSSPVTKSFNRGEC
For the molecule B2, the Kd in data set [2] is 4.57 nM.
